According to patent US20040167074A1, “Therapeutic applications of mFLINT polypeptides” (priority 1998, published 2004):

Tests used:
[1] = biological target: soluble Fas L (recombinant FasL)
[2] = biological target: hFasLigand (Flag-tagged) (human) (UniProt P48023); assay: competition ELISA: mrecFas 100 ng adsorbed, hFasLigand-Flag 30 ng, FLINT 1 ng; signal is FasL bound to Fas
[3] = biological target: hFasLigand (Flag-tagged) (human) (UniProt P48023); assay: competition ELISA: mrecFas 100 ng adsorbed, hFasLigand-Flag 30 ng, FLINT 10 ng; signal is FasL bound to Fas
[4] = biological target: FasL expressed by anti-CD3-activated Jurkat cells
[5] = biological target: hFasLigand (Flag-tagged) (human) (UniProt P48023); assay: competition ELISA: mrecFas 100 ng adsorbed, hFasLigand-Flag 30 ng, FLINT 5 ng; signal is FasL bound to Fas
[6] = biological target: hFasLigand (Flag-tagged) (human) (UniProt P48023); assay: competition ELISA: mrecFas 100 ng adsorbed, hFasLigand-Flag 30 ng, FLINT 100 ng; signal is FasL bound to Fas
[7] = biological target: FasL expressed by anti-CD3-activated Jurkat cells; remark: listed apart in the source
[8] = biological target: hFasLigand (Flag-tagged) (human) (UniProt P48023); assay: competition ELISA: mrecFas 100 ng adsorbed, hFasLigand-Flag 30 ng, FLINT 50 ng; signal is FasL bound to Fas
[9] = biological target: hFasLigand (Flag-tagged) (human) (UniProt P48023); assay: competition ELISA: mrecFas 100 ng adsorbed, hFasLigand-Flag 30 ng, FLINT 500 ng; signal is FasL bound to Fas
[10] = biological target: murine FasL of anti-CD3-stimulated mouse T cell hybridoma cells (LTT cells) (mouse) (UniProt P41047)
murine FasL of anti-CD3-stimulated mouse T cell hybridoma cells (LTT cells) (mouse), sequence (P41047 whole entry): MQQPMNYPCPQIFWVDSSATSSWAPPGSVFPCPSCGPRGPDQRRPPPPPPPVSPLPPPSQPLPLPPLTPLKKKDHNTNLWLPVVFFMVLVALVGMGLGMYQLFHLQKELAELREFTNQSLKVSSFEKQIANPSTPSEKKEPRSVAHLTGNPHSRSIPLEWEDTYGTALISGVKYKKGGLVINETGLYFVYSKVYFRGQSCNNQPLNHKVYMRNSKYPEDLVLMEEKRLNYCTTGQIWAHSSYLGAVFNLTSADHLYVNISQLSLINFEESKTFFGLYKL

[11] = biological target: murine FasL of anti-CD3-stimulated mouse T cell hybridoma cells (LTT cells) (mouse) (UniProt P41047); remark: listed apart in the source
[12] = tested on: bone marrow cells; assay: Viable cell count of bone marrow cells from 5-FU treated mice after cytokine expansion; format: cell-based, mouse; conditions: FIG. 10; 3 days with SCF and IL-6; mFLINT 1 ug/ml, anti-FasL 1 ug/ml, FasL 0.15 ug/ml; control 3,300
Source text: Following a 3 day in vitro expansion period with cytokines, viable cells are counted and used to set up a CFU assay. If mFLINT or anti-FasL antibody protects progenitor cells from apoptosis, one would expect a greater number of colonies in these groups for the CFU assay. […] The values were: control cells: 3,300; FasL-treated cells: 3,000; anti-FasL-treated cells: 4,200; mFLINT-treated cells: 4,900.

[13] = tested on: Jurkat cells; assay: Recombinant FasL induced Jurkat cell apoptosis (Annexin V/PI, FACS); format: cell-based; conditions: Jurkat + inducer alone 200 ng/ml, overnight
Description: One milliliter of 1×10^6 cell/ml was added into each well of 24 well tissue culture plate and treated with following reagents: soluble Fas L (200 ng), Fas L plus 1 ug mFLINT, Fas L plus 1 ug OPG2-Fc, Trail (200 ng), Trail plus 1 ug mFLINT. Cells were incubated overnight at 37° C. and then stained with Annexin V and PI.

[14] = tested on: mrecFas; assay: Baseline Fas-FasLigand interaction ELISA; format: binding; conditions: mrecFas 100 ng adsorbed
Description: First a baseline experiment was done for the Fas-FasLigand interaction in vitro. Unless otherwise indicated, all washing steps use TBST (Tris Buffer Saline with Tween 20 from SIGMA) and were done 3 to 6 times.
mrecFas (100 ng) was adsorbed on to ELISA plate. Then the plate was is blocked by TBST plus 0.1% Gelatine. […] After washing the plate 6 times, anti-mouse-Abs-HRP (3000 dilution, Bio-Rad) was added to the wells. After washings three times, visualization enzymatic reaction using ABTS as a substrate was performed. Unless otherwise noted, an ELISA reader commercialized by Molecular Devices Corp. (Menlo Park, Calif.) was used.

[15] = mouse, in vivo
Source text: These animals are also useful in further delineating useful treatment protocols for the conditions set out above. Transgene construction. […] The 5' primer, [NT], a BglII restriction site and the 3' primer, [NT], contained an SpeI restriction enzyme site. These were used to amplify the entire FLINT and FLAG coding region. The amplified 1.1 kb fragment was ligated into the multiple cloning site of plasmid […]2 generating plasmid […] (6.7 kb). See Fox et al, Eur. J. Pharmacol. 308:195 (1996). The FLINT gene fragment was excised from […] by BglII and SpeI digestion and gel-purified. This fragment then was blunted with Klenow enzyme and ligated into the Klenow-blunted MluI site of plasmid pLIV.7, provided by John Taylor of the J. David Gladstone Institutes. See Fan et al., Proc. Nat'l Acad. Sci. 91:8724 (1994). Resultant plasmid […] also contains the apo E gene promoter/5' flanking region and an hepatic enhancer sequences called the “hepatic control region” (HCR). […] Broad tissue expression was detected in line 6494 progeny by Northern blot, RT-PCR (TaqMan), Western blot and immunohistochemical analysis and was highest in the liver and kidney. High levels of FLINT protein were detected in the circulation of line 6494 mice by ELISA assay; founder level=490 ng/ml; progeny levels ranged from 285-1360 ng/ml (n=6). No endogenous FLINT was detected by these analyses.

B1: mFLINT (mature human FLINT, non-Flagged, made according to Examples 8 and 9) (receptor)
chain: VAETPTYPWRDAETGERLVCAQCPPGTFVQRPCRRDSPTTCGPCPPRHYTQFWNYLERCRYCNVLCGEREEEARACHATHNRACRCRTGFFAHAGFCLEHASCPPGAGVIAPGTPSQNTQCQPCPPGTFSASSSSSEQCQPHRNCTALGLALNVPGSSSHDTLCTSCTGFPLSTRVPGAEECERAVIDFVAFQDISIKRLQRLLQALEAPEGWGPTPRAGRAALQLKLRRRLTELLGAQDGALLVRLLQALRVARMPGLERSVRERFLPVH
modifications: glycosylated
Q: Which results are given for B1?
A: apoptosis of Jurkat cells, Annexin V and PI (FACS) [1]: 3.32; OD, 405 nM [2]: 0.36 OD, 405 nM; OD, 405 nM [3]: 0.36 OD, 405 nM; apoptosis of Jurkat cells, positive staining with Annexin V (FACS) [4]: 18.7; OD, 405 nM [5]: 0.36 OD, 405 nM; OD, 405 nM [6]: 0.18 OD, 405 nM; apoptosis of Jurkat cells (dose series of mFLINT) [7]: 14.7; OD, 405 nM [8]: 0.28 OD, 405 nM; OD, 405 nM [9]: 0.06 OD, 405 nM

B2: solubleFas (sFas)(FasFc, mouse) (Fc fusion)
chain: QGTNSISESLKLRRRVRETDKNCSEGLYQGGPFCCQPCQPGKKKVEDCKMNGGTPTCAPCTEGKEYMDKNHYADKCRRCTLCDEEHGLEVETNCTLTQNTKCKCKPDFYCDSPGCEHCVRCASCEHGTLEPCTATSNTNCRKQSPRNR
Q: With B2 as the molecule, how does the SFas % Annexin V Positive [10] read?
A: 56.7%

Q: And the MTS cytotoxicity assay, absorbance at 490 nm (absorbance at 490 nm) [11]?
A: 1.46

B3: FasL: Fas ligand; hFasLigand (Flag-tagged) in ELISA, soluble Fas L in cell assays (protein)
chain: QLFHLQKELAELRESTSQMHTASSLEKQIGHPSPPPEKKELRKVAHLTGKSNSRSMPLEWEDTYGIVLLSGVKYKKGGLVINETGLYFVYSKVYFRGQSCNNLPLSHKVYMRNSKYPQDLVMMEGKMMSYCTTGQMWARSSYLGAVFNLTSADHLYVNVSELSLVNFEESQTFFGLYKL
Q: What does the source list for B3?
A: bone marrow cell count [12]: 3,000 ×1000; Cell apoptosis (Annexin V and PI, FACS) [13]: 67.39; OD, 405 nM ([14]; FasL 1 ng): .1; OD, 405 nM ([14]; FasL 5 ng): .2; OD, 405 nM ([14]; FasL 10 ng): .3; OD, 405 nM ([14]; FasL 50 ng): .7; OD, 405 nM ([14]; FasL 100 ng): 1.2; OD, 405 nM ([14]; FasL 500 ng): 1.6

B4: FLINT protein: FLINT-FLAG expressed from Apo E promoter/HCR transgene in line 6494 transgenic mice (protein)
chain: VAETPTYPWRDAETGERLVCAQCPPGTFVQRPCRRDSPTTCGPCPPRHYTQFWNYLERCRYCNVLCGEREEEARACHATHNRACRCRTGFFAHAGFCLEHASCPPGAGVIAPGTPSQNTQCQPCPPGTFSASSSSSEQCQPHRNCTALGLALNVPGSSSHDTLCTSCTGFPLSTRVPGAEECERAVIDFVAFQDISIKRLQRLLQALEAPEGWGPTPRAGRAALQLKLRRRLTELLGAQDGALLVRLLQALRVARMPGLERSVRERFLPVH
modifications: glycosylated
notes: FLINT-FLAG expressed from Apo E promoter/HCR transgene in line 6494 transgenic mice
Q: With B4 as the molecule, how does the histopathologic findings [15] read?
A: No significant histopathologic findings

Q: And the observable abnormalities [15]?
A: no observable abnormalities
